For the assay, the target named is hPCSK9(D374Y)-mmh (human, UniProt Q8NBP7 31-692). Put plainly: cell-based or functional assay.

B1: H1M300N (antibody, V domains shown)
VH: EMQLVESGGGLVQPGGSLRLSCAASGFTFSSHWMKWVRQAPGKGLEWVANINQDGSEKYYVDSVKGRFTISRDNAKNSLFLQMNSLRAEDTAVYYCARDIVLMVYDMDYYYYGMDVWGQGTTVTVSS
VL: not shown
Take B1: the “IC50, LDL uptake in HepG2 cells” value amounted to 1.1 nM.

The values above are taken from patent publication US20140099312A1 (Regeneron, published 2014).
